Data from US20030095977A1 (published 2003).

Biological target: T1, CD20 (human, UniProt P11836 1-297)
T1 construct: whole, on cells; also called CD20 on Ramos cells
T1 sequence (looked up): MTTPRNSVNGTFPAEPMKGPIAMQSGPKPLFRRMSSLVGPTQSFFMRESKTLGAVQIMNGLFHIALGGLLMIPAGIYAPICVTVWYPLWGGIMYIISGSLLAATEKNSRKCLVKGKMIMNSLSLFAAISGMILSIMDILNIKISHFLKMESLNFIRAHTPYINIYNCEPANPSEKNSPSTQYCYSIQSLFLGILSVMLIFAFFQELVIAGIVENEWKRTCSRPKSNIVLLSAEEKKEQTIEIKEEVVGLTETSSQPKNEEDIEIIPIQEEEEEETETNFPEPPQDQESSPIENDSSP
Experiment: saturation binding of radiolabeled mAb to Ramos cells (10^7 cells), nonlinear regression; avidity

B1: B9E9 mAb (murine anti-CD20 antibody B9E9) (antibody, V domains shown)
VH: QVQLVQSGAELVKPGASVKMSCKASGYTFTSYNMHWVKQTPGQGLEWIGAIYPGNGDTSYNQKFKGKATLTADKSSSTAYMQLSSLTSEDSAVYYCARAQLRPNYWYFDVWGAGTTVTVSS
VL: DIVLSQSPAILSASPGEKVTMTCRASSSVSYMHWYQQKPGSSPKPWIYATSNLASGVPARFSGSGSGTSYSLTISRVEAEDAATYYCQQWISNPPTFGAGTKLELK
Ka: 1.02e+08 M⁻¹
Kd: 9.75 nM
